From patent publication US20230257469A1 (SINOCELLTECH, published 2023)
Read-outs that look alike come from different tables or passages of the source.

Key:
[1] = molecular target: T1, EGFR on tumor cells (UniProt P00533 25-1210, limits assumed); experiment: cell-based or functional assay
[2] = molecular target: T2, Recombinant human EGFR-His protein (human, UniProt P00533 25-645); experiment: ELISA as in Example 1.2.1
T2 construct: Bought protein; also called recombinant human EGFR protein; human EGFR protein; not shown: His tag

[3] = molecular target: T2, Recombinant human EGFR-His protein; experiment: ELISA of expressed phage-library clones on recombinant human EGFR protein
[4] = molecular target: T2, Recombinant human EGFR-His protein; experiment: ELISA as in Example 1.2.1; EC50 counted on the coated EGFR-His concentration
[5] = molecular target: T1, EGFR on tumor cells; experiment: cell-based or functional assay; remark: listed apart in the source
[6] = molecular target: T2, Recombinant human EGFR-His protein; experiment: BLI (Fortebio OctetRED96e), biotinylated recombinant human EGFR protein, fit over several concentrations
[7] = molecular target: T1, EGFR on tumor cells; experiment: cell-based or functional assay; remark: listed apart in the source
[8] = molecular target: T1, EGFR on tumor cells; experiment: cell-based or functional assay; remark: listed apart in the source
[9] = molecular target: T2, Recombinant human EGFR-His protein; experiment: ELISA; EGFR-His coated at 1.37-3000 ng/mL, antibody at 13.89 nM; EC50 counted on the coated antigen concentration

Molecule: SCT200 (antibody)
- EC50 (nM), inhibition of proliferation of Fadu cells, ligand: 1 µg /mL EREG [1]: 14.5 nM
- EC50 (nM), inhibition of proliferation of Fadu cells, ligand: None [1]: 0.129 nM
- EC50 (nM), inhibition of proliferation of MDA-MB-468 cells, ligand: 8 ng/mL HB-EGF [1]: 7.52 nM
- EC50 (nM), inhibition of proliferation of MDA-MB-468 cells, ligand: 1 µg/mL EREG [1]: 1.44 nM
- EC50 (nM), inhibition of proliferation of MDA-MB-468 cells, ligand: None [1]: 1.97 nM
- Maximum inhibition rate (%), proliferation of Fadu cells, ligand: 4 ng/mL EGF [1]: 68.5%
- Maximum inhibition rate (%), proliferation of Fadu cells, ligand: 8 ng/mL HB-EGF [1]: 65%
- Maximum inhibition rate (%), proliferation of Fadu cells, ligand: 1 µg /mL EREG [1]: 48.3%
- Maximum inhibition rate (%), proliferation of Fadu cells, ligand: None [1]: 49.7%
- Maximum inhibition rate (%), proliferation of MDA-MB-468 cells, ligand: 8 ng/mL HB-EGF [1]: 53.4%
- Maximum inhibition rate (%), proliferation of MDA-MB-468 cells, ligand: 200 ng/mL BTC [1]: 40.9%
- Maximum inhibition rate (%), proliferation of MDA-MB-468 cells, ligand: 1 µg/mL EREG [1]: 66.7%
- Maximum inhibition rate (%), proliferation of MDA-MB-468 cells, ligand: None [1]: 52.3%
- EC50 [2]: 0.167 µg/mL

B1: EGFR-mhPA8 scFv antibody (scFv)
scFv: DIQMTQSPASLAASVGETVTITCRASENIYYSLAWYQQKEGKSPQLLIYITNGLADGVPSRFSGSGSGTQYSMKIDSMQPEDTATYFCKQSYDVPLTFGAGTKLEMKSSGGGGSGGGGGGSSRSSQVQLQQSGPDLVKPGASVRISCKVSGYTFTTYYTHWVKQRPGRGLEWIGWIYPGDVNTKYNEKFKGKATLTADKTSSTAYMQLSSLTSEDSAVYFCAREDPGSNYFDYWGQGTTLTVSS
notes: Screened as a clone of a phage display library in pComb3x; also called EGFR-mhPA8 scFv antibody clone; murine antibody scFv
- binding result [3]: binds

B2: humanized antibody EGFR-HPA8 (antibody, human IgG1, kappa, V domains shown)
VH: EVQLVQSGAEVKKPGATVKISCKVSGYTFTTYYTHWVKQAPGKGLEWIGWIYPGDVNTKYNEKFKGRVTLTADTSTDTAYMELSSLRSEDTAVYYCAREDPGSNYFDYWGQGTLVTVSS
VL: DIQMTQSPSSLSASVGDRVTITCRASENIYYSLAWYQQKPGKAPQLLIYITDGLADGVPSRFSGSGSGTDYTLKIDSLQPEDFATYYCKQSYDVPLTFGGGTKVEIKR
notes: IgG1/kappa; expressed in HEK-293 cells (fut8 knockout), ADCC-enhanced; also called EGFR-HPA8-Ae0
- EC50 [4]: 0.117 µg/mL
- EC50 (nM), inhibition of proliferation of Fadu cells, ligand: 1 µg /mL EREG [5]: 10.9 nM
- EC50 (nM), inhibition of proliferation of Fadu cells, ligand: None [5]: 0.126 nM
- Kd [6]: 0.0069 nM
- koff [6]: 1.1e-05 s⁻¹
- kon [6]: 1.59e+06 M⁻¹ s⁻¹
- EC50 for the induction of ADCC, recombinant CD16a reporter gene system (Jurkat-NFAT-Luc2p-CD16A effector cells, A431 target cells) [7]: 0.008 nM
- EC50 (nM), inhibition of proliferation of MDA-MB-468 cells, ligand: 8 ng/mL HB-EGF [8]: 2.64 nM
- EC50 (nM), inhibition of proliferation of MDA-MB-468 cells, ligand: 1 µg/mL EREG [8]: 0.81 nM
- EC50 (nM), inhibition of proliferation of MDA-MB-468 cells, ligand: None [8]: 0.9 nM

B3: human-mouse chimeric antibody EGFR-mhPA8 (antibody, human IgG1, kappa, V domains shown)
VH: QVQLQQSGPDLVKPGASVRISCKVSGYTFTTYYTHWVKQRPGRGLEWIGWIYPGDVNTKYNEKFKGKATLTADKTSSTAYMQLSSLTSEDSAVYFCAREDPGSNYFDYWGQGTTLTVSS
VL: DIQMTQSPASLAASVGETVTITCRASENIYYSLAWYQQKEGKSPQLLIYITNGLADGVPSRFSGSGSGTQYSMKIDSMQPEDTATYFCKQSYDVPLTFGAGTKLEMKR
notes: Human IgG1 and kappa constant regions; also called murine antibody EGFR-mhPA8
- EC50 [9]: 0.129 µg/mL
- EC50 of inhibition of proliferation of MDA-MB-468 cells (WST-8) [7]: 2.78 nM
